Experiments:
[1] = target: monoFc-tagged NRP2 (human neuropilin 2 a1a2b1b2, residues 23 to 595) (human) (UniProt O60462); assay: BLI
[2] = target: NRP2 a2b1b2 (human neuropilin 2 residues 145 to 595, monomeric IgG1 Fc tag) (human) (UniProt O60462); assay: BLI
Sequence of NRP2 a2b1b2 (human neuropilin 2 residues 145 to 595, monomeric IgG1 Fc tag) (human) (O60462 145-595): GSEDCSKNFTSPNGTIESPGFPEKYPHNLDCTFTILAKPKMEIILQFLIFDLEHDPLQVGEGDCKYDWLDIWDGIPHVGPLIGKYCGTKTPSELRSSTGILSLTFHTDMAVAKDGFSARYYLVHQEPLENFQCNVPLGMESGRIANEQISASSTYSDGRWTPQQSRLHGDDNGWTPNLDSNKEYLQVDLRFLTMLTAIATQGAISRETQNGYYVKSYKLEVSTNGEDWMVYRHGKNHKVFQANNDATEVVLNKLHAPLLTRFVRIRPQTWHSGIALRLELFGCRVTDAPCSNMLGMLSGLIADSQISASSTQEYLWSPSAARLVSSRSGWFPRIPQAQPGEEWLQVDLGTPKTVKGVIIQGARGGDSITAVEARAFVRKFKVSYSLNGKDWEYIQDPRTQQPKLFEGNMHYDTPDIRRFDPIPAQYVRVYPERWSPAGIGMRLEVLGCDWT

Sequence of monoFc-tagged NRP2 (human neuropilin 2 a1a2b1b2, residues 23 to 595) (human) (O60462 23-595): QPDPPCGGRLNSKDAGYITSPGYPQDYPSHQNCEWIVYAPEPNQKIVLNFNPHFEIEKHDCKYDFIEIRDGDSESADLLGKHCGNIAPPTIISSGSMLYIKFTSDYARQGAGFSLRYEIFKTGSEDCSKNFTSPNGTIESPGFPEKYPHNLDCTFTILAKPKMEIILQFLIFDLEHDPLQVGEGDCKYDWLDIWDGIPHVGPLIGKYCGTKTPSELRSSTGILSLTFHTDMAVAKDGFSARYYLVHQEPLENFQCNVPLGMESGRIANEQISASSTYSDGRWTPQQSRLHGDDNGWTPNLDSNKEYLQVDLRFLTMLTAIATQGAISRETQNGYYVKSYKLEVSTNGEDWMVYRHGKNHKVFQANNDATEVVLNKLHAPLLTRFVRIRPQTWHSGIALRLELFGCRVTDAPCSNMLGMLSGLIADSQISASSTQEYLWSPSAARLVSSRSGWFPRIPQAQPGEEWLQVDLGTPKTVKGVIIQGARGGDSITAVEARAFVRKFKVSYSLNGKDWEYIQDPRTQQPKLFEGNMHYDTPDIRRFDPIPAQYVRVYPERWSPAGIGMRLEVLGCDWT

In the case of “soluble ectodomain of the HCMV Pentamer (strain Towne) (from UniProt P17176 24-718) (complex)”, the Kd [1] is reported as 2.2 nM and the Kd [2] is reported as 7.9 nM.
